In patent US20250304713A1, “COMBINATION IMMUNOTHERAPY COMPOSITIONS AND METHODS OF USE THEREOF” (THE PENN STATE RESEARCH FOUNDATION, priority 2022, published 2025):

B1: dinutuximab (antibody, chains of the INN, looked up, V domains shown)
VH: EVQLLQSGPELEKPGASVMISCKASGSSFTGYNMNWVRQNIGKSLEWIGAIDPYYGGTSYNQKFKGRATLTVDKSSSTAYMHLKSLTSEDSAVYYCVSGMEYWGQGTSVTVSS
VL: EIVMTQSPATLSVSPGERATLSCRSSQSLVHRNGNTYLHWYLQKPGQSPKLLIHKVSNRFSGVPDRFSGSGSGTDFTLKISRVEAEDLGVYFCSQSTHVPPLTFGAGTKLELK
notes: chimeric monoclonal antibody against the disialoganglioside GD2

Key:
9464D-GD2 cells = assay: Cell viability, CellTiter-Glo; assay type: cell-based, mouse; conditions: 0.1 μM tipifarnib; 24, 48, 72 h
Experimental: 9464D-GD2 cells were seeded in a white, opaque 96-well plate. The following day, cells were treated with increasing doses of tipifarnib, and cell viability was measured at 24, 48 and 72 hours post-treatment using the CellTiter-Glo® Luminescent Cell Viability Assay (Promega, G7573) according to manufacturer's instructions. Microplate luminescence was measured using a CLARIOstar (BMG Labtech) plate reader. All data were normalized to non-treated controls. 9464D cells or 9464D crRab27a cells were plated at a density of 5000 cells/well in a 96-well plate and monitored for confluence using the Incucyte S3 μLive Cell Imaging System (Sartorius). The percent cell confluence was quantified using Incucyte Basic Cell Analysis package (Sartorius).

9464D-GD2 tumors = assay: 9464D-GD2 syngeneic subcutaneous neuroblastoma model, tumor growth, volume and weight; assay type: in vivo, mouse
Experimental: (§1) All animal studies were performed according to guidelines established by the Institutional Animal Care and Use Committee (IACUC) at the Penn State College of Medicine (Hershey, PA). An immunocompetent mouse model of neuroblastoma was generated by subcutaneously injecting 1×10^6 9464D-GD2 cells in a 50:50 mixture of DMEM and Matrigel (Corning, 354234) into C57BL/6J mice (8- to 10-week-old, JAX 000664) with male and female mice represented at an equal ratio. One week following tumor cell inoculation, mice were randomized into treatment groups. Where indicated, mice were treated twice-weekly by tail-vein injection with PBS (100 μL), dinutuximab ([…] in 100 μL PBS), purified sEVs from 9464D-GD2 cells ([…] in 100 μL PBS), or the combination of dinutuximab and sEVs. Where indicated, tipifarnib (25 mg/kg) or an equivalent volume of vehicle was administered twice daily by oral gavage. Primary tumor growth was monitored by measuring tumor volume using calipers (volume=π(length*width^2)/6). At the experimental endpoint, mice were euthanized, and tumor, blood, spleen and bone marrow were harvested for ex vivo analysis. Endpoint tumor volume was calculated by measuring tumors using calipers (volume=π(length*width*height)/6).

[1] = test system: tumor-infiltrating NK cells, T-cells and tumor-associated macrophages in 9464D-GD2 tumors; assay: Flow cytometry of tumor-infiltrating immune cells (NK cells, T-cells, TAMs); assay type: in vivo, mouse
Experimental: (§2) Murine tumors and spleens were harvested at the experimental endpoint and mechanically disassociated. Tumors were further digested with tumor digestion buffer ([…] Collagenase Type I (Thermo Fisher, 17018029) and 2000 Units/ml DNase (Sigma-Aldrich, DN25-100MG) in HBSS buffer at room temperature for 1 hour. Dissociated tumor cells and spleen cells were passed through a 70 μm cell strainer (Falcon BD, 352350), pelleted, and washed once with PBS supplemented with 1% FBS. Red blood cells were lysed with RBC lysis buffer (0.0155 M NH4Cl, 1.2 mM NaHCO3, 0.01 mM Na2EDTA, pH 7.4 in distilled water) for 3 minutes on ice and neutralized with PBS supplemented with 10% FBS. Cells were centrifuged and resuspended in FACS buffer to obtain single cell suspensions.
as §1
For cell surface staining, approximately 1×10^6 cells were stained with pre-mixed antibody cocktail panels (Table 1) in 100 μL FACS buffer (1% FBS, 0.2% NaN3 in PBS) for 30 minutes on ice. Cells were washed twice with FACS buffer and fixed with 2% paraformaldehyde (Fisher Scientific, 50-980-487) for 15 minutes. Fixed cells were washed once with PBS and resuspended in 0.5 mL FACS buffer for flow cytometric analysis using a LSR II or Symphony flow cytometer (BD Biosciences). Compensation was performed using UltraComp eBeads™ compensation beads (Invitrogen). FlowJo™ v10 (FlowJo, LLC) software was used for data analysis.

[2] = test system: NK cells (NK1.1+CD3-) in blood; assay: Flow cytometry of blood NK cells of tumor-bearing mice; assay type: in vivo, mouse
Experimental: as §1, with “(volume=π(length*width*height)/6). […]” for “(volume=π(length*width*height)/6).”

splenic NK cells = assay: Flow cytometry of splenic NK cell subpopulations (maturation); assay type: in vivo, mouse
Experimental: as §2
as §1, with “(volume=π(length*width*height)/6). […]” for “(volume=π(length*width*height)/6).”

[3] = day 24, treatment as FIG. 4D (FIG. 5A)
[4] = day 30, treatment as FIG. 1D (FIG. 3C)

Molecule	cytotoxicity (cell viability) (9464D-GD2 cells)	tumor growth (tumor volume over time) (9464D-GD2 tumors; dinutuximab 1.25 mg/kg and/or 9464D-GD2 sEVs 20 μg, tail vein twice weekly from one week post-inoculation, to day 30, vs PBS (FIG. 1E))	tumor growth and weight, sEV rescue experiment (9464D-GD2 tumors; dinutuximab and/or tipifarnib with or without sEVs, day 24 (FIG. 6B-D))	TAM population (CD11b+F4/80+) [1, 3]	tumor-infiltrating NK cells (NK1.1+CD3-) [1, 3]	tumor-infiltrating T-cells (CD3+NK1.1-) [1, 3]	tumor-associated macrophage (TAM) population (CD11b+F4/80+) ([1]; day 30, treatment as FIG. 1D (FIG. 2E bottom))	tumor-infiltrating NK cell population (NK1.1+CD3-) ([1]; day 30, treatment as FIG. 1D (FIG. 2E top))	level of circulating NK cells (mobilization) ([2]; day 24, treatment as FIG. 4D (FIG. 5B))	percentage of serum (blood) NK cells, NK cell mobilization ([2]; day 30, treatment as FIG. 1D (FIG. 2F))	percentage of mature NK cells in the spleen (CD27-CD11b+) (splenic NK cells; day 24, treatment as FIG. 4D, vs control or tipifarnib alone (FIG. 5C))	percentage of mature splenic NK cells (CD27-CD11b+) (splenic NK cells; [4])	percentage of splenic NK cells with immature phenotype (CD27+CD11b-) (splenic NK cells; [4])
Cn1cncc1[C@@](N)(c1ccc(Cl)cc1)c1ccc2c(c1)c(-c1cccc(Cl)c1)cc(=O)n2C [tipifarnib]	absence of cytotoxicity	–	–	–	–	–	–	–	–	–	–	–	–
B1	–	dramatically suppressed tumor growth	mild anti-tumor activity alone	decreasing TAMs	enhancing the mobilization of NK cells and percentages of tumor-infiltrating NK cells and T-cells	enhancing the mobilization of NK cells and percentages of tumor-infiltrating NK cells and T-cells	significantly decreased the TAM population	significantly increased the tumor-infiltrating NK cell population	enhancing the mobilization of NK cells	significant increase in the percentage of serum NK cells	significantly increased the percentage of mature NK cells in the spleen	increased the percentage of mature splenic NK cells	significantly decreased the percentage of splenic NK cells with an immature phenotype
